Measurements as given in article doi:10.1101/2021.02.07.430167 (bioRxiv, 2021).

Biological target: T1, human TRADD death domain (199-312) (human, UniProt Q15628 199-312)
T1 sequence: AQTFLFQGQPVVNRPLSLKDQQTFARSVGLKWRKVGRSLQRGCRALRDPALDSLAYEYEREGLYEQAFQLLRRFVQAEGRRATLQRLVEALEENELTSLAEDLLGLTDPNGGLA
Experiment: NMR solution structure

B1: human p75 neurotrophin receptor death domain (330-427) (domain or fragment)
chain: KGDGGLYSSLPPAKREEVEKLLNGSAGDTWRHLAGELGYQPEHIDSFTHEACPVRALLASWATQDSATLDALLAALRRIQRADLVESLCSESTATSPV
binding result: binds
